Test results reported in paper PMC5758902.

T1: NgoS (MutS) (Neisseria gonorrhoeae, UniProt Q5F5J4 1-814)
T1 sequence: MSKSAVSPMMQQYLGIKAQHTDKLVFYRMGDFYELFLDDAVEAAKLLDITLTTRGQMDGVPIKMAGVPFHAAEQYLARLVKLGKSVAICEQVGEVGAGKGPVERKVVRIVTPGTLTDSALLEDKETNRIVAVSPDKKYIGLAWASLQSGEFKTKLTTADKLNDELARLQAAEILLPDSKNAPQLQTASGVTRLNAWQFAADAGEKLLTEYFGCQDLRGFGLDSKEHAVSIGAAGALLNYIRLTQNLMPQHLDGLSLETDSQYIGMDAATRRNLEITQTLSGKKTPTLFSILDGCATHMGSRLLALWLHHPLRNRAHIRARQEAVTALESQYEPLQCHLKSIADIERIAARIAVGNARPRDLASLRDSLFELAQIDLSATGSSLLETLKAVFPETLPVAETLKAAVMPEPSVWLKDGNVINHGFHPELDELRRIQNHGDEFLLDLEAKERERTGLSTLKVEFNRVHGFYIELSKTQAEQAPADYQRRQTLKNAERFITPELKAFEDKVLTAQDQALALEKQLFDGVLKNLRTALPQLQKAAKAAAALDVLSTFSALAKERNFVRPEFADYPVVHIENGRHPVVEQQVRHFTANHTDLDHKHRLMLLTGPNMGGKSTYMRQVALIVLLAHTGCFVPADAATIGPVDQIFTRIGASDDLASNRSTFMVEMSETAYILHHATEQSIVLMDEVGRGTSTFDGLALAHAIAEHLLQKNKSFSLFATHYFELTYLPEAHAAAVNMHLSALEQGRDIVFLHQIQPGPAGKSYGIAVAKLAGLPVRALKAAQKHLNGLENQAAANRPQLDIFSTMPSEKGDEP

T2: NgoS E687A (Neisseria gonorrhoeae, UniProt Q5F5J4 1-814, E687A)
T2 sequence: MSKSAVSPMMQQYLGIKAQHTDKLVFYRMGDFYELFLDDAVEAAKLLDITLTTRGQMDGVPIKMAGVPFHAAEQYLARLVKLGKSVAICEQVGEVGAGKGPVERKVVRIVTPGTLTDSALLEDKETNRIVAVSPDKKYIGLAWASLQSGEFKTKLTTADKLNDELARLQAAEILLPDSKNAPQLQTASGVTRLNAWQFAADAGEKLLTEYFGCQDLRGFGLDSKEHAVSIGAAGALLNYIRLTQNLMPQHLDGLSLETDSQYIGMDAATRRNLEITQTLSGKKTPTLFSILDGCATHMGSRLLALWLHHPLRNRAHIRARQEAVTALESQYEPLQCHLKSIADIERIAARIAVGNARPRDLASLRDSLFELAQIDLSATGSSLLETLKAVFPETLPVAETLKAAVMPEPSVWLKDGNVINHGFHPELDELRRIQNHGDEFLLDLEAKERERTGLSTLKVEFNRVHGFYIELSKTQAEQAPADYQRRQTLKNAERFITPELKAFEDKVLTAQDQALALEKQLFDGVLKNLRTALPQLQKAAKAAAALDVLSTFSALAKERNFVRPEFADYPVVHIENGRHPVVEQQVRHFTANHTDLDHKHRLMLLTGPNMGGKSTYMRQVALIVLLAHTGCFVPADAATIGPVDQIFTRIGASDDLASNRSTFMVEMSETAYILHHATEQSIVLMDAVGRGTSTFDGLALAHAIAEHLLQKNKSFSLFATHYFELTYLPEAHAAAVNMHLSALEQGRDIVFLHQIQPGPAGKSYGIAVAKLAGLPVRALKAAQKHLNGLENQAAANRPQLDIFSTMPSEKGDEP


How the values were obtained:
NgoS (MutS) [1] = target: T1, NgoS (MutS); test: DLS
NgoS (MutS) [2] = target: T1, NgoS (MutS); test: fluorescence anisotropy
NgoS E687A = target: T2, NgoS E687A; test: fluorescence anisotropy

Row | Binder | binding result (NgoS (MutS) [1]) | binding result (NgoS (MutS) [2]) | binding result (NgoS E687A)
1 | 30mer G:T heteroduplex (dsDNA) DNA 1: AGCTGCCAGGCACCAGTGTCAGCGTCCTAT DNA 2: ATAGGACGCTGACACTGGTGCTTGGCAGCT | binds | – | –
2 | 31mer G:T heteroduplex (dsDNA) DNA 1: GCGATGTTGCTGACGCTGGTGCCTGGCAGCT DNA 2: AGCTGCCAGGCACCAGTGTCAGCAACATCGC | – | binds | binds
3 | 30mer homoduplex (dsDNA) DNA 1: AGCTGCCAGGCACCAGTGTCAGCGTCCTAT DNA 2: ATAGGACGCTGACACTGGTGCCTGGCAGCT | binds | – | –
